Experimental data published in PMC314469, “Protein Interaction Networks by Proteome Peptide Scanning” (PLoS Biology, 2004).

T1: amphyphisin SH3 (AMPH_HUMAN), P49418
T1 chain: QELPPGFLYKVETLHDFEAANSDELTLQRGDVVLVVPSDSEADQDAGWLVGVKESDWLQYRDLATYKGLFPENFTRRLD


Key:
[1] = biological target: T1, amphyphisin SH3 (AMPH_HUMAN), P49418; assay: SPOT array
[2] = biological target: endophilin SH3 (SH3G2_HUMAN), Q99962; assay: SPOT array

Binder	normalised SPOT signal, Boehringer light units (BLU); mean over the file's lines of this peptide [1]	normalised SPOT signal, Boehringer light units (BLU); mean over the file's lines of this peptide [2]
ARRGPGRPRKRKHS [Q9P281 735-748]	121	231
PSTLPRRPPVPSGQ [Q9Y215 243-257]	309	2140
PSYHILRPSRNQDL [Q9BR43 91-104]	412	426
PDETLRRPGGPQYG [Q14289 406-419]	24.5	12.2
PDHRPPRPPQPPPP [P51511 326-340]	548	1370
PDIPPPRPPKPHPA [Q13480 337-351]	635	6240
AARGLRRPEDSSRK [Q9H5N7 170-183]	18	3.6
PDPAIRRPAEKFLE [P55060 21-34]	35.9	52.2
PDPGFLRPQRAALY [Q9UGB8 1078-1091]	986	310
PDQGPQRPPPEGLL [Q16378 41-55]	24.4	62.3
PDVWLRRPSTHTSG [Q9C0C1 1172-1185]	60.1	242
PEAVPGKPPFAEPD [Q9BYN7 703-717]	71.4	63.8
ARRLLVRPARLRRH [Q9UIC6 53-66]	1340	67.4
PESEIERPERLTAA [Q9UGX2 21-34]	124	281
PEDAPKRPKEAAPD [Q9NUE8 153-166]	19.3	23.2
PEIFLKRPVVEGNR [Q13393 385-398]	32.1	95.5
PEPELSRPIRHHPD [Q01459 44-57]	98.6	116
PERLLLRPARIRAD [Q9BXY2 295-308]	1020	106
PEVGPWRPKRLSGV [Q9NPU4 88-101]	4730	2400
PEVQLRRPNWSKLV [O60610 754-767]	35.6	152
PEVYLKRPAHSDDW [O14939 368-381]	33	28.5

Binder	normalised SPOT signal, Boehringer light units (BLU); mean over the file's lines of this peptide [1]	normalised SPOT signal, Boehringer light units (BLU); mean over the file's lines of this peptide [2]
PEYRPKRPANQFVP [P13862 172-185]	24.8	238
PFFAPKRPFFPPRY [O75048 890-903]	215	3080
ARRPLARPIKPNEI [O94825 179-192]	92.1	136
PFGQLKRPRRNGLG [Q9NUE2 170-183]	510	67.8
PFHSLKRPRPPFAR [O75048 874-887]	65.6	228
PFRALKRPLQFLGL [O00156 318-331]	28.1	63.7
PGAGLRRPTYTPPS [O15209 277-290]	31.8	171
PGDSPAKPPEGSAG [Q8WXD9 428-442]	52.2	72.5
PGEHPGRPGRGGSV [Q13577 1110-1123]	414	31.7
PGFSLKRPRGLSRS [Q99640 37-50]	40.1	41.8
PGGSPRRPPALAGP [P58401 8-21]	46.4	241
PGGKPERPPKPGPP [P51511 339-353]	570	4460
PGHSPRRPRPLGLS [Q16538 521-534]	45.1	2830
ARRPLARPIKRGDI [O94844 155-168]	227	265
PGLAPKRPLETGPR [Q96BF6 185-198]	31.4	1350
PGNIPQRPDRLPMS [Q9P2I2 89-102]	2130	360
PGPAPKRPRGGGAG [Q06587 167-180]	38.5	348
PGPFPPRPPGPLGP [Q9BW18 356-370]	68.3	1930
PGPGPRRPPWEGAD [Q96Q04 1263-1277]	25	523
PGPPPGRPPGPPPG [Q9Y2W2 459-473]	33.4	924
PGPSLRRPSRELDA [Q9NTN9 19-32]	442	226
